The text below walks through data of US5534407.

For data set [1], the system named is RecA protein (Escherichia coli). The note with it: renaturation t1/2 with about 500 uM ATP; little renaturation without ATP; 10 mM MgCl2, 50 mM NaCl, 37 C.
For data set [2], the system named is T4 gene 32 protein (Bacteriophage T4). The note with it: renaturation t1/2; about 1% annealed after 60 min; 10 mM MgCl2, 50 mM NaCl, 37 C.
In data set [3] the test system is T7 gene 2.5 protein (Bacteriophage T7). The note with it: renaturation t1/2 by agarose gel annealing assay; 10 mM MgCl2, 50 mM NaCl, pH 7.5, 37 C, no ATP; none >30,000 min.

With “167-nt fragment (primer-extended to XmnI site) plus circular M13 mGP1-2 ssDNA”, the activity in data set [1] was 60 min; in data set [2] it was 3000 min; in data set [3], 1 min.
